From patent US20250269051A1 (ALMAC DISCOVERY, published 2025)

Tests used:
human ROR1-Fc (CHO) = target: T1, human ROR1-Fc (CHO) (human); experiment: ELISA on coated human ROR1-hFc, one concentration (5 µg/mL)
T1 construct: ROR1 extracellular domain fused to human Fc; also called huROR1-Fc; hROR1-Fc
Procedure: (§1) In brief, ELISA method as follows. Wells coated with 100ng of ROR1-hFc antigen and incubated, covered, at room temperature for 2 hr. Plates washed 3×400ul per well with PBST (PBS+0.05% Tween 20 (v/v)), then blocked with 4% skimmed milk powder (w/v) in PBST for 1 hour at 37° C. Plates washed as before plus additional wash in PBS alone. HisMyc-tagged binding proteins were diluted in 4% milk PBST and incubated overnight at 4° C. Plates washed 3× with PBST, 3× PBS and binding detected using appropriate secondary detection antibody in 4% milk PBST, room temperature 1 hour. Secondary antibodies used include: [0658] Anti-c-Myc, HRP (Invitrogen #R951-25) [0659] Mouse anti-polyHis, HRP (Sigma #A7058)

human ROR2-Fc (CHO) = target: T2, human ROR2-Fc (CHO) (human); experiment: ELISA; hROR2-hFc coated
T2 construct: also called hROR2-hFc
T2 sequence (chain, as listed by the source limits assumed): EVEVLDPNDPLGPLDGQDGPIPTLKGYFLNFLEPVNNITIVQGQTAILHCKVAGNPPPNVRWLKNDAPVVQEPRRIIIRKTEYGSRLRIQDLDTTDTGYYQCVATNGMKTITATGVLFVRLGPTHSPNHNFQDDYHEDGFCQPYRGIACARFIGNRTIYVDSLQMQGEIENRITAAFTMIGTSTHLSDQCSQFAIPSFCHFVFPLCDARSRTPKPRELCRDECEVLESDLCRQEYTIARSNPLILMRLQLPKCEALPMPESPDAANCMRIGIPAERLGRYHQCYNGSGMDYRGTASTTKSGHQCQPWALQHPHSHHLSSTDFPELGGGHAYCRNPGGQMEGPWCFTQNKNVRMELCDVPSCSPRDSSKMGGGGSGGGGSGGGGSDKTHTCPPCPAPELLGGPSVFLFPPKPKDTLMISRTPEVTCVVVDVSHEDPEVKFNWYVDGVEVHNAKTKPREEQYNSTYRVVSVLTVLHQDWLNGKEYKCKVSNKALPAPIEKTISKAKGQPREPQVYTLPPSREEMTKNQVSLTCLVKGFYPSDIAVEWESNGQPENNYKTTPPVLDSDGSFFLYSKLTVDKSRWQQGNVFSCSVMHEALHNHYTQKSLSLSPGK
Procedure: as §1
The same ELISA procedure was employed as described above but with either mROR1-hFc or hROR2-hFc coated on the plates.

T1 sequence (chain, as listed by the source limits assumed): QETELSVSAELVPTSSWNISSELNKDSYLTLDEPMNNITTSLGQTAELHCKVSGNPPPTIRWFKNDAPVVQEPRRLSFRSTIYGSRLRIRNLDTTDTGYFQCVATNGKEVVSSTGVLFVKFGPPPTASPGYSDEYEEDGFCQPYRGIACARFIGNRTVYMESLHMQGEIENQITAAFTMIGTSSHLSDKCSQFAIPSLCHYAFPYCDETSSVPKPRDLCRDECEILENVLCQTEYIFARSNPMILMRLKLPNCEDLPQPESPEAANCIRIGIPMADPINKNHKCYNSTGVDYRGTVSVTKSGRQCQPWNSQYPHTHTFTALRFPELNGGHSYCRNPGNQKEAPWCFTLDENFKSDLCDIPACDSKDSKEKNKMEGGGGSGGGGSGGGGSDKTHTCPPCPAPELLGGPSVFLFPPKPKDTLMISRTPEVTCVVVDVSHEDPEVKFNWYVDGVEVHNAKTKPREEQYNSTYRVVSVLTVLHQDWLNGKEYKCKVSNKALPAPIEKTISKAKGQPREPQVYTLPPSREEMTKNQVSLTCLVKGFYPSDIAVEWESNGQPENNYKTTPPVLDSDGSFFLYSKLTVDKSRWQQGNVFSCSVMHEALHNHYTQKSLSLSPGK

Row | Binder | binding result (human ROR1-Fc (CHO)) | binding result (human ROR2-Fc (CHO))
1 | AA5.S (VNAR, P3A1 G1 loop variant from the selection on streptavidin beads; also called P3A1 G1 loop variant AA5.S) VNAR: TRVDQSPSSLSASVGDRVTITCVLTGTGYGLYSSTYWYRKNPGSSDEERIIIGGRYSESVNKGSKSFTLTISSLQPEDSATYYCRAREARHPWLRQWYDGAGTKVEIKQ | binds | –
2 | NAC6.S (VNAR, VNAR, P3A1 G1 loop variant; entry includes the HisMyc tag; also called P3A1 G1 NAC6.S; P3A1G1 NAC6.S) VNAR: TRVDQSPSSLSASVGDRVTITCVLTDTRYALYSSTYWYRKNPGSTDEERISIGGRYSESVNKGSKSFTLTISSLQPEDSATYYCRAREARHPWLRQWYDGAGTKVEIKQ | – | no binding

The next lines start with the values.

Row | binding result (human ROR1-Fc (CHO)) | binding result (human ROR2-Fc (CHO)) | Binder
3 | – | no binding | AE3.S (VNAR, VNAR, P3A1 G1 loop variant; entry includes the HisMyc tag; also called P3A1 G1 AE3.S; P3A1G1 AE3.S) VNAR: TRVDQSPSSLSASVGDRVTITCVLTGTRYGLYSSTYWYRKNPGSSDEERISISGRYSESVNKGTKSFTLTISSLQPEDSATYYCRAREARHPWLRQWYDGAGTKVEIKQ
4 | binds | – | AC5.S (VNAR, P3A1 G1 loop variant from the immunotube selection; also called P3A1 G1 loop variant AC5.S) VNAR: TRVDQSPSSLSASVGDRVTITCVLTDTSYGLYSSTYWYRKNPGSSNKERMSISGRYSESVNKGSKSFTLTISSLQPEDSATYYCRAREARHPWLRQWYDGAGTKVEIKQ
